From publication PMC4188797

Target: metabotropic glutamate receptor 1 splice variant mGluR1a (endogenous, rat brain) (rat (endogenous in rat brain)), P23385
Test: SDS-PAGE and immunoblot of dimer bands in subcellular fractions
Settings: remark: other sources report otherwise

stoichiometry N: 2
B1: metabotropic glutamate receptor 1 splice variant mGluR1a (endogenous, rat brain), P23385 19-1199 (receptor)
chain: LPRMPDRKVLLAGASSQRSVARMDGDVIIGALFSVHHQPPAEKVPERKCGEIREQYGIQRVEAMFHTLDKINADPVLLPNITLGSEIRDSCWHSSVALEQSIEFIRDSLISIRDEKDGLNRCLPDGQTLPPGRTKKPIAGVIGPGSSSVAIQVQNLLQLFDIPQIAYSATSIDLSDKTLYKYFLRVVPSDTLQARAMLDIVKRYNWTYVSAVHTEGNYGESGMDAFKELAAQEGLCIAHSDKIYSNAGEKSFDRLLRKLRERLPKARVVVCFCEGMTVRGLLSAMRRLGVVGEFSLIGSDGWADRDEVIEGYEVEANGGITIKLQSPEVRSFDDYFLKLRLDTNTRNPWFPEFWQHRFQCRLPGHLLENPNFKKVCTGNESLEENYVQDSKMGFVINAIYAMAHGLQNMHHALCPGHVGLCDAMKPIDGRKLLDFLIKSSFVGVSGEEVWFDEKGDAPGRYDIMNLQYTEANRYDYVHVGTWHEGVLNIDDYKIQMNKSGMVRSVCSEPCLKGQIKVIRKGEVSCCWICTACKENEFVQDEFTCRACDLGWWPNAELTGCEPIPVRYLEWSDIESIIAIAFSCLGILVTLFVTLIFVLYRDTPVVKSSSRELCYIILAGIFLGYVCPFTLIAKPTTTSCYLQRLLVGLSSAMCYSALVTKTNRIARILAGSKKKICTRKPRFMSAWAQVIIASILISVQLTLVVTLIIMEPPMPILSYPSIKEVYLICNTSNLGVVAPVGYNGLLIMSCTYYAFKTRNVPANFNEAKYIAFTMYTTCIIWLAFVPIYFGSNYKIITTCFAVSLSVTVALGCMFTPKMYIIIAKPERNVRSAFTTSDVVRMHVGDGKLPCRSNTFLNIFRRKKPGAGNANSNGKSVSWSEPGGRQAPKGQHVWQRLSVHVKTNETACNQTAVIKPLTKSYQGSGKSLTFSDASTKTLYNVEEEDNTPSAHFSPPSSPSMVVHRRGPPVATTPPLPPHLTAEETPLFLADSVIPKGLPPPLPQQQPQQPPPQQPPQQPKSLMDQLQGVVTNFGSGIPDFHAVLAGPGTPGNSLRSLYPPPPPPQHLQMLPLHLSTFQEESISPPGEDIDDDSERFKLLQEFVYEREGNTEEDELEEEEDLPTASKLTPEDSPALTPPSPFRDSVASGSSVPSSPVSESVLCTPPNVTYASVILRDYKQSSSTL
